The values that follow come from publication PMC10449828, “Fanconi anemia associated protein 20 (FAAP20) plays an essential role in homology-directed repair of DNA double-strand breaks”.

The target of one series is T1, FAAP20 (human, UniProt Q6NZ36 1-180).
T1 sequence: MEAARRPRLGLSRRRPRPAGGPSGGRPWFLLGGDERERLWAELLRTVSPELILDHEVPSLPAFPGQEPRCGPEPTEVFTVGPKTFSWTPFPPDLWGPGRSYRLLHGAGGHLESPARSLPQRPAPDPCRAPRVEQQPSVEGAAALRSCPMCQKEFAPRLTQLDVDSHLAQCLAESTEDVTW
The series is described as follows: EMSA; FAAP20 9-24 nM; EMSA: 125 mM Tris pH 7.5, 5 mM EDTA, 6% glycerol, 1 mM DTT, 100 mM NaCl, 1 nM substrate, RT 45 min; 4% native PAGE in 1x TAE. Particulars: protein: recombinant; tags: C-terminal 6xHis; label: 32P 5' (T4 PNK); single strand.

Series [1] addresses T2, FANCA;FAAP20 (human;human, UniProt O15360;Q6NZ36 1-1455;1-180, |). The series is described as follows: EMSA; FANCA 10 nM, FAAP20 9-24 nM; FAAP20 increases FANCA affinity; EMSA: 125 mM Tris pH 7.5, 5 mM EDTA, 6% glycerol, 1 mM DTT, 100 mM NaCl, 1 nM substrate, RT 45 min; 4% native PAGE in 1x TAE. Particulars: protein: recombinant;recombinant; tags: none (native FANCA);C-terminal 6xHis; copies: 1;1; label: 32P 5' (T4 PNK); single strand. A general note: A gel shift assay detects complexes by their altered migration in electrophoresis.

The target in another series is FANCA;FAAP20;FANCG (human;human;human, UniProt O15360;Q6NZ36;O15287 1-1455;1-180;1-622, ||). The series is described as follows: EMSA; 10 nM each; slightly additive over FANCA+FANCG or FANCA+FAAP20; EMSA: 125 mM Tris pH 7.5, 5 mM EDTA, 6% glycerol, 1 mM DTT, 100 mM NaCl, 1 nM substrate, RT 45 min; 4% native PAGE in 1x TAE. The note with it: protein: recombinant;recombinant;recombinant; tags: none (native FANCA);C-terminal 6xHis;N-terminal 6xHis; label: 32P 5' (T4 PNK); single strand.
Sequence of FANCA;FAAP20;FANCG (O15360 whole entry, chain 1 of 2): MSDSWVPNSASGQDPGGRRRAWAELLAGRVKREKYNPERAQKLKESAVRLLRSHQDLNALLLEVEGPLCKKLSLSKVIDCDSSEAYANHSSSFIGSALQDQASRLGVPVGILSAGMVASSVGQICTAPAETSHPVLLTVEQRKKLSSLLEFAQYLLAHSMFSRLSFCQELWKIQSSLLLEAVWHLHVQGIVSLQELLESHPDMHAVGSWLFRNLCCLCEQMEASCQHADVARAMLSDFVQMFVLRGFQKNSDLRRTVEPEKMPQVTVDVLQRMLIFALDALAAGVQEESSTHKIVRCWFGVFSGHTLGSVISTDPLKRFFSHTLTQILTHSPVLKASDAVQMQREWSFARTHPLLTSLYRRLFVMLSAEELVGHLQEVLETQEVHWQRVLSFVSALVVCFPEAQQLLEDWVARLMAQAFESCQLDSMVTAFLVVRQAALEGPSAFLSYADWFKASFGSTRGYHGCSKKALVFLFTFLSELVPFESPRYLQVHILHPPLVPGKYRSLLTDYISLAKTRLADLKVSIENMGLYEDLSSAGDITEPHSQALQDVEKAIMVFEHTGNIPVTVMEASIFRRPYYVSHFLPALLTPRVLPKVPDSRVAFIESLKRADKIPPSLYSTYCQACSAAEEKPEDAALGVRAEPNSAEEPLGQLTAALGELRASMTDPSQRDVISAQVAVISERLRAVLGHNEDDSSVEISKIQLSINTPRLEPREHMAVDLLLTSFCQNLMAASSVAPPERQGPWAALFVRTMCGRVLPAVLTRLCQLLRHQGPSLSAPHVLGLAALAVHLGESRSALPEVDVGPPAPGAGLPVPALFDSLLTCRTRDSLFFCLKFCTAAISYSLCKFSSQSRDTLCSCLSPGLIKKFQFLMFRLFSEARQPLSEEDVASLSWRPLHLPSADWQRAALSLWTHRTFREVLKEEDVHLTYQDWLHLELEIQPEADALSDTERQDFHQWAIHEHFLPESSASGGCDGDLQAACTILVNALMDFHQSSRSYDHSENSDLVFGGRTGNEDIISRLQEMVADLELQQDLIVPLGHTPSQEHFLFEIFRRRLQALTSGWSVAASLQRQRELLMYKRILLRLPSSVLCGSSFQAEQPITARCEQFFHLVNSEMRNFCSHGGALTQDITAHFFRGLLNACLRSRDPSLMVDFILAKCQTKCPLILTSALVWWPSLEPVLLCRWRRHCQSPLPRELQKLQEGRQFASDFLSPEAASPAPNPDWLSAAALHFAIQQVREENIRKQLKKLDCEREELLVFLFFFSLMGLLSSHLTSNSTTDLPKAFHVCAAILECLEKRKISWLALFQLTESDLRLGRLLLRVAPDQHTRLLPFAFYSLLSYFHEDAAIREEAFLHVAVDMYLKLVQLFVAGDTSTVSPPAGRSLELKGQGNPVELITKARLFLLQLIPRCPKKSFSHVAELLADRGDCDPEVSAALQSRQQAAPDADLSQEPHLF
Sequence of FANCA;FAAP20;FANCG (O15287 whole entry, chain 3 of 2): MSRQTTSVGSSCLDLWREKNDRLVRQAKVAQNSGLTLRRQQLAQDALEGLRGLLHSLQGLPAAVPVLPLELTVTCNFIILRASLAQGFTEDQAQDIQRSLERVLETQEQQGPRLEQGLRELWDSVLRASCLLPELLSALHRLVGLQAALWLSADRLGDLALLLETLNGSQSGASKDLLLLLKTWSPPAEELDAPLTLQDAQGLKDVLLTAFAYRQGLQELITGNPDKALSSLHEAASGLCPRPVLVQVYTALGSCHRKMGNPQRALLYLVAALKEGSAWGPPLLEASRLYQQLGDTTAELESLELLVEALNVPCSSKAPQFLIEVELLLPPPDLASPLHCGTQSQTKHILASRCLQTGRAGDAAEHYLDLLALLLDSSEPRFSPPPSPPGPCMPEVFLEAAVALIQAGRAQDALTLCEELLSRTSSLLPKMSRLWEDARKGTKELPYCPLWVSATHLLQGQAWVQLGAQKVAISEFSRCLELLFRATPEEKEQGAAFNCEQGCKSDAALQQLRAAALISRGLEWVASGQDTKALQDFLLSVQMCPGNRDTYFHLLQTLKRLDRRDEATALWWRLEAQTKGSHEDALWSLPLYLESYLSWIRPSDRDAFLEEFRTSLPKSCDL

A further series concerns the target FANCA;FANCG (human;human, UniProt O15360;O15287 1-1455;1-622, |). In words: EMSA; 10 nM each; higher affinity than FANCA alone; EMSA: 125 mM Tris pH 7.5, 5 mM EDTA, 6% glycerol, 1 mM DTT, 100 mM NaCl, 1 nM substrate, RT 45 min; 4% native PAGE in 1x TAE. The note with it: protein: recombinant;recombinant; tags: none (native FANCA);N-terminal 6xHis; copies: 1;1; label: 32P 5' (T4 PNK); single strand.

The target in series [2] is T2, FANCA;FAAP20. In words: EMSA; FANCA 10 nM, FAAP20 9-24 nM; binding stimulated; EMSA: 125 mM Tris pH 7.5, 5 mM EDTA, 6% glycerol, 1 mM DTT, 100 mM NaCl, 1 nM substrate, RT 45 min; 4% native PAGE in 1x TAE. The note with it: protein: recombinant;recombinant; tags: none (native FANCA);C-terminal 6xHis; copies: 1;1; label: 32P 5' (T4 PNK); fork, 25 bp duplex; unpaired 3' arm 30 nt (strand 1) and 5' arm 25 nt (strand 2); 1 nt 3' overhang on strand 2 as printed.

The target in series [3] is T2, FANCA;FAAP20. The series is described as follows: EMSA; fixed suboptimal FANCA, FAAP20 titrated; binding stimulated; EMSA: 125 mM Tris pH 7.5, 5 mM EDTA, 6% glycerol, 1 mM DTT, 100 mM NaCl, 1 nM substrate, RT 45 min; 4% native PAGE in 1x TAE. The note with it: protein: recombinant;recombinant; tags: none (native FANCA);C-terminal 6xHis; copies: 1;1; label: 32P 5' (T4 PNK); single strand.

T2 sequence (O15360 whole entry, one chain of several): as the sequence (O15360 whole entry, chain 1 of 2) above
Sequence of FANCA;FANCG (O15360 whole entry, chain 1 of 2): as above
Sequence of FANCA;FANCG (O15287 whole entry, chain 2 of 2): as the sequence (O15287 whole entry, chain 3 of 2) above

B1: EMSA ssDNA 61-mer (ssDNA)
DNA: GACGCTGCCGAATTCTACCAGTGCCTTGCTAGGACATCTTTGCCCACCTGCAGGTTCACCC
For the molecule B1, the binding result with FAAP20 is on record as “no binding”; with FANCA;FAAP20 [1], “binds”; with FANCA;FAAP20;FANCG it was “binds”; with FANCA;FANCG, “binds”.

B2: splayed arm DNA (mixed)
DNA 1: GTCCTCCACCGCAGCCCACCTGCCCACCTTGTTGCTGATCTCAATCAGCTCTGGA
DNA 2: GCTGGCACGGTCGGATTTAAAGTTAGGGCAGGTGGGCTGCGGTGGAGGACG
Regarding B2, the binding result with FANCA;FAAP20 [2] is recorded as “binds”.

B3: EMSA ssRNA 61-mer (ssRNA)
RNA: GACGCUGCCGAAUUCUACCAGUGCCUUGCUAGGACAUCUUUGCCCACCUGCAGGUUCACCC
Consider B3, for which the binding result with FANCA;FAAP20 [3] is “binds”.
